Patent US20220372142A1 (IGM BIOSCIENCES, published 2022)
Residue numbers refer to the chain shown, from its start. Numbers in names are those of the source.

T1: CD20 (UniProt P11836 1-297, limits assumed)
T1 sequence (looked up): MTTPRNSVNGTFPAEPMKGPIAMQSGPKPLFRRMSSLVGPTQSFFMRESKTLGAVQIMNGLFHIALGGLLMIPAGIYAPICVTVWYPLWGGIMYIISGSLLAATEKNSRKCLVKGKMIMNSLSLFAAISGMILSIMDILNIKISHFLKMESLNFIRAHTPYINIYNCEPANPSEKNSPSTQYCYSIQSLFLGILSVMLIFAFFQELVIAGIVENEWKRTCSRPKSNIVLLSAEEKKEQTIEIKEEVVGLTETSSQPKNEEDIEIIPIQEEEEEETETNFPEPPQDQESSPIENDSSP

B1: RTX-IgM V15J (wt) (bispecific antibody)
VH: QVQLQQPGAELVKPGASVKMSCKASGYTFTSYNMHWVKQTPGRGLEWIGAIYPGNGDTSYNQKFKGKATLTADKSSSTAYMQLSSLTSEDSAVYYCARSTYYGGDWYFNVWGAGTTVTVSA
VL: QIVLSQSPAILSASPGEKVTMTCRASSSVSYIHWFQQKPGSSPKPWIYATSNLASGVPVRFSGSGSGTSYSLTISRVEAEDAATYYCQQWTSNPPTFGGGTKLEIKR
chain: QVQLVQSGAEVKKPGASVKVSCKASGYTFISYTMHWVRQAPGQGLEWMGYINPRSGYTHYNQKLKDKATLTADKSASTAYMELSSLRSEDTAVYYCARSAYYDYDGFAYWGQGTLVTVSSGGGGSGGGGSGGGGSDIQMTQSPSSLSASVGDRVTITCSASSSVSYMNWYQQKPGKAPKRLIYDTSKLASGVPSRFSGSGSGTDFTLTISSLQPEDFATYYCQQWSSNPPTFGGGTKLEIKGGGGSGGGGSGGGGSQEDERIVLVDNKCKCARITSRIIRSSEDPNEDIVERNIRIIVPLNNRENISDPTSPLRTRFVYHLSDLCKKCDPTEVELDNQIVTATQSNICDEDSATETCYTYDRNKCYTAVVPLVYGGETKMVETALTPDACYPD
B2: RTX-IgM V15J (N93E) (bispecific antibody)
VH: B1 VH
VL: B1 VL with N93E
chain: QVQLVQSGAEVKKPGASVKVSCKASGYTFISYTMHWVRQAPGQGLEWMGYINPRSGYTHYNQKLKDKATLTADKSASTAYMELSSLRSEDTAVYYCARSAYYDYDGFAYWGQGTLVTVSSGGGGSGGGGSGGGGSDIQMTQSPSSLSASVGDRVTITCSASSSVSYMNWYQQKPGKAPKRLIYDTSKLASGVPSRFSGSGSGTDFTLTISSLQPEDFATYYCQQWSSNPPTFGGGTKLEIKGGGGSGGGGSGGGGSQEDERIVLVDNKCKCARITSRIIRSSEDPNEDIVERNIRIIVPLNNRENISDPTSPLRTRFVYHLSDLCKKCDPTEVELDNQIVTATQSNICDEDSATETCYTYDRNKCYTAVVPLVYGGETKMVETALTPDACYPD
B3: RTX-IgM V15J (N93D) (bispecific antibody)
VH: B1 VH
VL: B1 VL with N93D
chain: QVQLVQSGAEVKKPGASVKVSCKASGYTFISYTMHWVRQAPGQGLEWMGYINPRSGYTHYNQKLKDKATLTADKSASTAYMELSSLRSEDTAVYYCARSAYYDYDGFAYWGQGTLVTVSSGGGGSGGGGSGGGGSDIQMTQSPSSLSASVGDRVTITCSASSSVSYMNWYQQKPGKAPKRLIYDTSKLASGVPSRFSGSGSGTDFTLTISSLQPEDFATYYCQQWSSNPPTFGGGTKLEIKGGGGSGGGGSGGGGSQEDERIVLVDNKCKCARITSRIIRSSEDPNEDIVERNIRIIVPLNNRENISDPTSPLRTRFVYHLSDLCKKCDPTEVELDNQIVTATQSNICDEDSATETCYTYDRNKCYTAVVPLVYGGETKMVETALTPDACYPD
B4: RTX-IgM + J N93R (antibody)
VH: B1 VH
VL: B1 VL with N93R
chain: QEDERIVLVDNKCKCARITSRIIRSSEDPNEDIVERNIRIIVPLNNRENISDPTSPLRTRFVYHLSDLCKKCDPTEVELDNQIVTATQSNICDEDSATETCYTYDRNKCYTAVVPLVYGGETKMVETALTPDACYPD
notes: Pentameric IgM with wild-type J-chain; IgM constant region of the construct not specified
B5: RTX-IgM + J N93K (antibody)
VH: B1 VH
VL: B1 VL with N93K
chain: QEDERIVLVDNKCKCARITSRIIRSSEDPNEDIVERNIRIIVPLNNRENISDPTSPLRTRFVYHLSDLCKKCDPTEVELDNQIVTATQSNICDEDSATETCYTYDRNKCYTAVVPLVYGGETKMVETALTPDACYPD
notes: as for B4
B6: RTX-IgM + J N93A (antibody)
VH: B1 VH
VL: B1 VL with N93A
chain: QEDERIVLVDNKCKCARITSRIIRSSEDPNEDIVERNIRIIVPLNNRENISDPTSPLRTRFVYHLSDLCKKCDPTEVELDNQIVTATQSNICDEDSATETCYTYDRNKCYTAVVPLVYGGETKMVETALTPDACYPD
notes: as for B4

Experiments:
CD20 [1] = molecular target: T1, CD20; test: cell-based or functional assay
CD20 [2] = molecular target: T1, CD20; test: flow cytometry on Ramos cells, anti-human kappa AF647 detection
Experimental: The cells were split every 2-3 days as necessary to maintain the cell density between 0.2-2.0×10⁶ cells/mL. […] The antibody cell mixtures were incubated for 30 minutes on ice in the dark. […] Fluorescent staining data was acquired on FACSCalibur using standard settings and analyzed with FloJo 10. Mean fluorescent intensity (MFI) values were imported into GraphPad Prism, and EC50 or KD values were calculated from the resulting curve fit.

Binder	TDCC on CA46 cells with CD8+ T cells, EC50 (CD20 [1])	TDCC on Ramos cells with CD8+ T cells, % Max. (CD20 [1])	TDCC on Ramos cells with CD8+ T cells, EC50 (CD20 [1])	TDCC on normal B cells with CD8+ T cells, EC50 (CD20 [1])	EC50 (CD20 [2])
B1	14 pM	98%	9 pM	9 pM	
B2		80%	107 pM	145 pM	
B3		60%	722 pM		
B4					520 pM
B5					880 pM
B6					690 pM
